{"source": "the nanobody polyreactivity screen of Harvey et al. (2022)"}
{"assay": "yeast display, Sf9 membrane polyspecificity reagent, FACS + sequencing; frameworks hold sequencing errors", "method_in_brief": "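After 36–48 hours of galactose induction, yeast (Saccharomyces cerevisiae BJ5465) displaying a synthetic nanobody library were stained at 4 °C for 1 hour with 10% biotinylated, detergent-solubilized Sf9 membrane reagent. Streptavidin microbeads enriched the stained cells before FACS sorting into low and high (top ~1%) gates on anti-HA and streptavidin fluorescence. Each clone's polyreactivity label reflects its gate of origin.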"}
{"sequence": "QVQLVESGGGLVQAGGSLRLSCAASGSTFAFNAMGWYRQAPGKERELVASISGSGSSTYYADSVKGRFTISRDNAKNTVYLQMNSMKPEVTAVYYCDARVGARVSPPRRHGRFNYWGQGTQVTVSS", "polyreactivity (PSR sort gate)": "high polyreactivity"}
{"sequence": "QVQLVESGGGLVQAGGSLRLSCAASGSTFAGNAMGWYRQAPGKERELVAAIDSSTGSTYYADSVKGRFTISRDNAKNTVYLQMNSLKPEDTPVYYCSREYYEGYEYWGLGTQVTVSS", "polyreactivity (PSR sort gate)": "low polyreactivity"}
{"sequence": "QVQLVESGGGLVQAGGSLRLSCAASGSTFAGNGMGWYRQAPGKERELVAGIDVTGGSTYYADSVKGRFTSSRDNAKNTVYLQMNSLKPEDTAVYYCNARYVYHSSFAGFDYWGQGTQVTVSS", "polyreactivity (PSR sort gate)": "low polyreactivity"}
{"sequence": "QVQLVESGGGLVQAGGSLRLSCAASGSTFAINAMGWYRQAPGKERELVAAITYSGGGTYYADSVKGRFTISRENAKNTVYLQMNSLKPEDTAVYYCYAYGRSWVFNYIGVFLYDYWGQGTQVTVSS", "polyreactivity (PSR sort gate)": "low polyreactivity"}
{"sequence": "QVQLVESGGGLVQAGGSLRLSCAASGSTFAINVMGWYRQAPGKERELVAAISSVGGTNYADSVKGRFTISRDNAKNTVYLQMNSLKPEDTAVYYCATVYSSWTVRYDYWGQGTQVTVSS", "polyreactivity (PSR sort gate)": "low polyreactivity"}
{"sequence": "QVQLVESGGGLVQAGGSLRLSCAASGSTFAIYAMGWYRQAHGKERELVAAIRQRAGSTYYADSVKGRFTISRDNAKNTVYLQMNSLKPEDTAVYYCATATRPISRGYWGQGTQVTVSS", "polyreactivity (PSR sort gate)": "low polyreactivity"}
{"sequence": "QVQLVESGGGLVQAGGSLRLSCAASGSTFAKYAMGWYRQAPGKERELVASIRLSGGSTYYADSVKGRFTISRDNAKNTVYLQMNSLKPEDTAVYYCNKPFPYYPDGPNGYDYWGQGTQVTVSS", "polyreactivity (PSR sort gate)": "low polyreactivity"}
{"sequence": "QVQLVESGGGLVQAGGSLRLSCAASGSTFAKYAMGWYRQAPGKERELVAVISWGGGSTYYADSVKGRFTISRDNAKNTVYLQMNSLKPEDTAVYYCAAVYDEYQTTHEYDYWGQGTQVTVSS", "polyreactivity (PSR sort gate)": "low polyreactivity"}
{"sequence": "QVQLVESGGGLVQAGGSLRLSCAASGSTFAKYAMGWYRQAPGKESELVASIRLSGGSTYYADSVKGRFTISRDNAKNTVYVQRNSLKPEDTAVYYCNKQFATFYYGFDYSYWGQGTQVTVSS", "polyreactivity (PSR sort gate)": "low polyreactivity"}
{"sequence": "QVQLVESGGGLVQAGGSLRLSCAASGSTFALNAMGWYRQAPGKERELVAAIDDSGITYYADSVKGRFTISRDNAKNTVYLQMNSLKPDDTAVYYCAKKEWKSRTHAKGDQYPDDYWGQGTQVTVSS", "polyreactivity (PSR sort gate)": "low polyreactivity"}
{"sequence": "QVQLVESGGGLVQAGGSLRLSCAASGSTFALYVMGRYRQAPGKERELVAAINSVGSKYYADSVKGRFTISRDNAKNTVYLQMHSLKPEDTSVYYCAAVSTYRPGWYYRYNYWGHGTQVTVSS", "polyreactivity (PSR sort gate)": "high polyreactivity"}
{"sequence": "QVQLVESGGGLVQAGGSLRLSCAASGSTFANNAMGWYRQAPGKERELVASITTDGSTNYADSVKGRFTIARDNAKNTVYLQMNSLKPEDTAVYYGAADYHTPSSFAPIELYDYWGQGTQVTVSS", "polyreactivity (PSR sort gate)": "low polyreactivity"}
{"sequence": "QVQLVESGGGLVQAGGSLRLSCAASGSTFAPYAMGWYRQAPGKERELVASIRSTGSTNYADSVKGRFTISRDNAKNTVYLQMNSLKPEDTAVYYCAARYRRYQYRVKVDYYYWGQGTQVTVSA", "polyreactivity (PSR sort gate)": "high polyreactivity"}
{"sequence": "QVQLVESGGGLVQAGGSLRLSCAASGSTFARYTMGWYRQAPGKERELVAAITSNGVSTYYADSVKGRFTISRDNAKNTVYLQMNSLKPEDTAVYYCAASSRSRYGRNDYWGQGTQVTVSS", "polyreactivity (PSR sort gate)": "low polyreactivity"}
{"sequence": "QVQLVESGGGLVQAGGSLRLSCAASGSTFARYTMGWYRQAPGKERELVATITNRGGSTYYADSVKGRFTISRDNAKNTVYLQMNSLKPEVTAVYYCNKRYYWGGYDYWGQGTQVTVSS", "polyreactivity (PSR sort gate)": "high polyreactivity"}
{"sequence": "QVQLVESGGGLVQAGGSLRLSCAASGSTFATYAMGWYRQAPGKERELVAAITSGGSTYYADSVKGRFTISRDNAKNTVYLQMNSLKPEDTAVYYCAARSYGWRRATYYKREEYWGQGTQVTVSS", "polyreactivity (PSR sort gate)": "high polyreactivity"}
{"sequence": "QVQLVESGGGLVQAGGSLRLSCAASGSTFAVNVMGWYRQAPGKERELVATITYRDGRTYYADSVKGRFTISRDNAKNTVYLQMNSLKPEDTAVYYCAADDEYKQEAEMDSWGQGTLVTVSS", "polyreactivity (PSR sort gate)": "low polyreactivity"}
{"sequence": "QVQLVESGGGLVQAGGSLRLSCAASGSTFAVYAMGWYRQAPGKERELVASITDGGASTYYADSVKGRFTISRDNAKNTVYLQMNSLKPEDTAVYYCAADTYPTTSEVDYWGQGTQVTVSS", "polyreactivity (PSR sort gate)": "low polyreactivity"}
{"sequence": "QVQLVESGGGLVQAGGSLRLSCAASGSTFAVYSMGWYTQAPGKERELVADSSYSGGSTYYADSVKGRFTISRDNAKNTVYLQMNSLIPEDTAVYYCAADWYDWLSTYDDWGQGTQVTVSS", "polyreactivity (PSR sort gate)": "low polyreactivity"}
{"sequence": "QVQLVESGGGLVQAGGSLRLSCAASGSTFAVYTMGWYRQAPGKEREMSTSYADSVKGRFTISRDNAKNTVYLQMTCLKPEDTAVYYCNRDFYEFDSNSYRFDYWGQGTQVTVSS", "polyreactivity (PSR sort gate)": "low polyreactivity"}
{"sequence": "QVQLVESGGGLVQAGGSLRLSCAASGSTFAYNAMGWYRQAPGKERELVAAISKGGGSTYYADSVKGRFTISRDNAKNTVYLQMNSLKPEDTAVYYCNAYYRSPRGYNYWGQGTQVTVSS", "polyreactivity (PSR sort gate)": "high polyreactivity"}
{"sequence": "QVQLVESGGGLVQAGGSLRLSCAASGSTFAYNAMGWYRQAPGKERELVAAISWSGGTTYYADSVKGRFTISRDNAKNTVYLQMNSLKPEDTAVYYCAADVYLNRRQRMYYWGQGTQVTVSS", "polyreactivity (PSR sort gate)": "high polyreactivity"}
{"sequence": "QVQLVESGGGLVQAGGSLRLSCAASGSTFAYYAMGWYRQAPGKERELVAAITRSTGRTYYADSVKGRFTISRDNAKNTVYLQMNSLKPEDTAVYYCAKTYGYRQPGDYWGQGTLVTVSS", "polyreactivity (PSR sort gate)": "high polyreactivity"}
{"sequence": "QVQLVESGGGLVQAGGSLRLSCAASGSTFAYYAMGWYRQAPGKERELVAASSVSGGRTYYADSVQGRFTISRDNAKNTVYLQMNSLKPEDTAVYYCAARLWRDYYWGQGTQVTVSS", "polyreactivity (PSR sort gate)": "high polyreactivity"}
{"sequence": "QVQLVESGGGLVQAGGSLRLSCAASGSTFAYYAMGWYRQAPGKERELVAVISVRGGSTYYADSVKGRFTISRDYAKNTVYLQMNSLKPEDTAVYYCAADTFAGYYYWGQGTQVTVSS", "polyreactivity (PSR sort gate)": "high polyreactivity"}
{"sequence": "QVQLVESGGGLVQAGGSLRLSCAASGSTFAYYAMGWYRQAPGKERELVAVISVSGDGTSTYYADSVKGRFTISRDNAKNTVYLQMNSLKPEDSAVYYCAAEQVLVGGHTYSLTYDYWGQGTQVTVSS", "polyreactivity (PSR sort gate)": "low polyreactivity"}
{"sequence": "QVQLVESGGGLVQAGGSLRLSCAASGSTFAYYAMGWYRQAPGKEREWVAGISGSGGSTYYADSVKGRFTISRDYAKNTVYLHMNSLKPEDTAVYYCAVVQRSKRTYPWYDYWGQGSQVTVSS", "polyreactivity (PSR sort gate)": "low polyreactivity"}
{"sequence": "QVQLVESGGGLVQAGGSLRLSCAASGSTFAYYTMGWYRQAPGKERELVAAISSRGGSTYYADSVKGRFTISRDNAKNTVYLQMNSLKPEDTAVYYCAKSPRVAHYTSAYDYWGQGTQVTVSS", "polyreactivity (PSR sort gate)": "high polyreactivity"}
{"sequence": "QVQLVESGGGLVQAGGSLRLSCAASGSTFAYYVMGWYRQAPGKERELVAAISRGGRTYYADSVKGSFTISRDNAKNTVYLQMNSLKPEDTSVYYCNKVYVVYSRSKGFYYTYLKYEYWGQGTQVTVSS", "polyreactivity (PSR sort gate)": "low polyreactivity"}
{"sequence": "QVQLVESGGGLVQAGGSLRLSCAASGSTFAYYVMGWYRQAPGKERELVAAITSSGGRTYYADSVKGRFTISRDNAKNTVYLQMNSLKPEDTAVYYWAKVSQRRVDNSDYDYWGQGTQVTVSS", "polyreactivity (PSR sort gate)": "high polyreactivity"}
{"sequence": "QVQLVESGGGLVQAGGSLRLSCAASGSTFCENDMGWYRQAPGKERELVAAISWTGGRTYYADSVKGRFTISRDNAKNTVYLQMNSLKAEDTAVYYFAAEWEYYGFDYWGQGTQVTVSS", "polyreactivity (PSR sort gate)": "low polyreactivity"}
{"sequence": "QVQLVESGGGLVQAGGSLRLSCAASGSTFCYYDMGWYRQAPGKERELVATISSGGGTNYAASVKGRFTISRDNAKNTVYLQMNSLKPEDTAVYYCAAQYVIRITFYATYWEDYWGQGTQVTVSS", "polyreactivity (PSR sort gate)": "low polyreactivity"}
{"sequence": "QVQLVESGGGLVQAGGSLRLSCAASGSTFDANAMGWYRQEPGKERELVATISDGGSTNYADSVKGRFTISRDNAKNTVYLQMNSLKPEDTAVYYCAADFSPWGGWYMSLDYWGQGTQVTVSS", "polyreactivity (PSR sort gate)": "low polyreactivity"}
{"sequence": "QVQLVESGGGLVQAGGSLRLSCAASGSTFDANDMGWYRQAPGKERELVAAITIGGGSTYYADSVKGRFTISRDNAKNTVYLQMNSLKPEDTAVYYCAKDDHTGVHTYPVDYWGQGTQVTVSS", "polyreactivity (PSR sort gate)": "low polyreactivity"}
{"sequence": "QVQLVESGGGLVQAGGSLRLSCAASGSTFDDYAMGWYRQAPGKERELVAAISSAGTTYYADSVKGRFTISRDNAKNTVYLQMNSLKPEDTAVYYCNTVLYPVWYVNFSLRYRYDYYWGQGTQVTVSS", "polyreactivity (PSR sort gate)": "high polyreactivity"}
{"sequence": "QVQLVESGGGLVQAGGSLRLSCAASGSTFDDYTMGWYRQAPGKERELLAAISSDSSTNYADSVKGRFTISRDNAKNTVYLQMNSLKPEDTAVYYCATRSRTTKIVRWPGMYYWGQGTQVTVSS", "polyreactivity (PSR sort gate)": "high polyreactivity"}
{"sequence": "QVQLVESGGGLVQAGGSLRLSCAASGSTFDGNAMGWYRPAPGKERELVAAITWRDGSTSYADSVKGRFTISRDNAKNTVYLQMNSLKPEDTAVYYCNADPGYLDEEYWGQGTQVTVSS", "polyreactivity (PSR sort gate)": "low polyreactivity"}
{"sequence": "QVQLVESGGGLVQAGGSLRLSCAASGSTFDGNAMGWYRQAPGKERELVAAITSGGSTNYADSVKGRFTILRDNAKNTVYLQMNSLKPEDTAVYYCAAGWLYARWHSYVGYYYWGQGTQVTVSS", "polyreactivity (PSR sort gate)": "low polyreactivity"}
{"sequence": "QVQLVESGGGLVQAGGSLRLSCAASGSTFDINAMGWYRQAPGKERHLVAAITYDTTTTYYADSVKGRFTISRDNAKNTVYLLMNSLKPEDTAVYYCAVEGLLGDTTYVQGYPYWYNYWGQGTQVTVSS", "polyreactivity (PSR sort gate)": "low polyreactivity"}
{"sequence": "QVQLVESGGGLVQAGGSLRLSCAASGSTFDIYAMGWYRQAPGKERELVAAITGSSGSTYYADSVKGRFTISRDNAKNTVYLQMNSLKPEDTAVYYCAADIVRVSTVPSLVYSYYWGQGTQVTVSS", "polyreactivity (PSR sort gate)": "low polyreactivity"}
{"sequence": "QVQLVESGGGLVQAGGSLRLSCAASGSTFDIYVMGWYRQAPGKESELVAAISRVGNTSYADSVKGRFTISRDNAKNTVNLQMNSLKPEDTAVYYCAADAPSWYDRQYDYWGQCTQVTVSS", "polyreactivity (PSR sort gate)": "low polyreactivity"}
{"sequence": "QVQLVESGGGLVQAGGSLRLSCAASGSTFDPKAMGWYRQAPGKERELVAAISYTGGRTYYADSVKGRFTISRDNAKNTVYLQMNSLKPEDTAVYYCAVLVVGSTTQDEPYFSGVEHDYWGQGTQVTVSS", "polyreactivity (PSR sort gate)": "low polyreactivity"}
{"sequence": "QVQLVESGGGLVQAGGSLRLSCAASGSTFDPYAMGWYRQAPGKERELVAGISASGGSTYADSVKGRFTISRDNAKNTVYLQMNSLKPEDTACYYCAADTYLIRGPPDEEYWGQGTQVTVSS", "polyreactivity (PSR sort gate)": "low polyreactivity"}
